Reference: the DeepSol protein solubility set

assay: soluble on expression in E. coli; label from the status in PepcDB or PDB records

| Sequence | soluble on expression in E. coli |
| --- | --- |
| MGSDKIHHHHHHMRIEVWGGAGEYGRSCYFVKNKETKILFDCGINRSYEDSYPKIEREVVPFLDAVFLSHIHEDHTMGLPLLAKYGYKKKIWTTRYTKEQLPAYYEKWRNYNLAQGWHVPYTDQHVKDLNYVYIDEISNPNEWVQITPTLRFQWGYSGHVLGAVWFLLDMSHTYVFYSGDYSAESNILRANLPEKLHGDIKVAIVDAAYHTDDVSQHERINELCTEIERAAGNKGITLLPLPPLGRAQDIVLYLYKKYKELPIIVDQEILDGFQQMFAYKDWIKNNEELEELMESLKRNIIVMDDDSGTQHSYGIVVMSDANMQTKRAQLYYEQLRHDERNSIIFTGHIAKGSFAEKVLKERVGKECRVKRVPYKVHQSIRDVKEMLNTLSPEHTVLVHALKEDTDRLQKKLSTAGYENVYSLTMERIEVI | not soluble |
| MSLDPRKVNELRAFVKMCKQDPSVLHTEEMRFLREWVESMGGKVPPATQKAKSEENTKEEKPDSKKVEEDLKADEPSSEESDLEIDKEGVIEPDTDAPQEMGDENAEITEEMMDQANDKKVAAIEALNDGELQKAIDLFTDAIKLNPRLAILYAKRASVFVKLQKPNAAIRDCDRAIEINPDSAQPYKWRGKAHRLLGHWEEAAHDLALACKLDYDEDASAMLKEVQPRAQKIAEHRRKYERKREEREIKERIERVKKAREEHERAQREEEARRQSGAQYGSFPGGFPGGMPGNFPGGMPGMGGGMPGMAGMPGLNEILSDPEVLAAMQDPEVMVAFQDVAQNPANMSKYQSNPKVMNLISKLSAKFGGQAEGHHHHHH | soluble |
| MAHHHHHHMYRAHSKDINRNKGFHPLTYRNLRRVEQLKEEAELNKQKAEERQKELQRDQEERRYDELVLANSADSLSGELARYRQTRSIFAAEYEADAKAAKDASVASLPSPQVSKPEVQLKTSAGASFPVNSFLSKFKKEESYGSTCVMVKAEARDNTAAAASSAVASAEAETPVRKRPRDDATSNSPSSTHNGSGYGEGATKRGGDGGESAPATGFVTSAEAAQLRKELNLAQKQRHDPLMRVKEYQNSCVAAAARQLDHEQATGAVAKREDDQDKLQSRIRELLALKKKKK | not soluble |
| FNSSINNIHEMEIQLKDALEKNQQWLVYDQQREVYVKGLLAKIFELEKKTETAAHSLP | soluble |
| MSLTLQQKELFQKSPLLLENGETLSPVLVGYETYGTLSASRDNCILLEHALTGTAHAAKHFEDDAPGWWDDYIGPGKTIDTDKYFLVCTNVFGGCSGTTGPSSINPKTGEPFRLQFPGFSIKDIIKVQRELLEQLGVTRIVSVIGGSMGGMQATEWAIDYADITDSIINIASPLAAGPDAIGYNLIMRMAILNDPDFNGGNYVGQPEGGLATARMVGMMTYRTSELFSKRFERFTVAESSPAAFSKEHFQIESYLQYQGDTFVERFDANSYLYLTKAIDLFDVTAPAKDDLPAFSKIKIPYLLIGITTDQLFRIHDLRRGYELLKEWDVPVTYHEVASEYGHDAFLVEKEVPKFEPLIRSFLSNLPVKSIEGHHHHHH | soluble |
| MSLSNDYPLVSIIIPTYNSSDYITETLTKLEKQTYPNFEIVIVNDGSKDNTSSVLREYGLTHSRLIIINKENGGVSSARNTGIRKAQGQFICFMDDDDEIDPNYLLKMYSRQHETGGDAIYCGLYGHHIKNGVTYSPINTDFNEGSLLFDFFYKKVRFHIGCLFIRKQLLEDNNLFFDEDLRLGEDLDFIYRLLITCDMYAVPYYMYKHNYRENSLMNSCRTITHYRHESFAHERIYSSVMQLYKGNRKEEIHTLLSKNRTYHKTRYLWNVLLNGDFELLNQLVESNEKELKDCNLLGKRDKRRAKILASKNYILWRMVRLVNRKKNKEGHHHHHH | soluble |
| MELEAGTVVEGRVVRVVSFGAFVELAGGEQGLVHISQIAHEYVTNVRDYLNEGDIVQVLIKGRDAKGRLDLSIKDLTPAPEGGAPPPRPRRLPKQSPEFENKLKSFLRGTGGFGGKGKKGGRKKR | soluble |
| MRCPYCQYEDTQVKDSRPSEEGTVIRRRRICSVCGGRFTTFERVQLRELLVLKKSGRYEPFDRDKLMRSVEIAVRKRGIDPDYIERVISGIVRQLESLGEPEISSEKIGLLVMKALKSIDDIAYIRFASVYRDFRNASDFHDVIEELSKGITDTESCFDE | not soluble |
| AHHHHHHGSRERGVAFFSGGKDGLYALYLAEKEGIEVPYLLTLKTSIGLSPHWENLSSLKALAENMGKKLLTFDMKYGSKALAEFISSLDVDYIIAGDVFLEDHLKWINLLAEKAGIKSFEPLWGKNTLELAKEMLNAGFKYSIIAVDKNKLEKTWLGYTFSSTRDIEIFIYENPTIDPLGEGGEFHTITLSSPLFKDEFTLEKISVEESERYWWMRFRVVGNDIKNVRVKGHNSRKDG | not soluble |
| MGSDKIHHHHHHNRRELTYSPEATITISADWSQSGLNEKEQDYGATAIFYPTDGSTPFVALMGDRTYKTLCLKEGCYNVVLFNRSFDDFGNLCFRGEENYQTLEAYVKKMEIRNESSSERIIMESPDELAADYIEGFEVTSDMPENYSSAITQQSNRNSTRNENSCHLRFTPKKLTQKITVKIRIKGMNNIRKATCTLDGIAESIFLVSKQNSEKTVTQVLRLSNPIYDSGSVTEGTLSTTISVFGFDVEIPHNLHLKAKLVDGKTIFEESFNDLAIRRLDEEDGTMSVFIDMACEKTVPNVKTEGSSGFDADVDKWNDEVNSDIDI | not soluble |
| GSHMSGKARLHYPVTRQGEQVDHYFGQAVADPYRWLEDDRSPETEAWVKAQNAVTQDYLAQIPYRAAIKEKLAASWNYAKEGAPFREGRYHYFFKNDGLQNQNVLWRQQEGKPAEVFLDPNTLSPDGTTALDQLSFSRDGRILAYSLSLAGSDWREIHLMDVESKQPLETPLKDVKFSGISWLGNEGFFYSSYDKPDGSELSARTDQHKVYFHRLGTAQEDDRLVFGAIPAQHHRYVGATVTEDDRFLLISAANSTSGNRLYVKDLSQENAPLLTVQGDLDADVSLVDNKGSTLYLLTNRDAPNRRLVTVDAANPGPAHWRDLIPERQQVLTVHSGSGYLFAEYMVDATARVEQFDYEGKRVREVALPGLGSVSGFNGKHDDPALYFGFENYAQPPTLYRFEPKSGAISLYRASAAPFKPEDYVSEQRFYQSKDGTRVPLIISYRKGLKLDGSNPTILYGYGGFDVSLTPSFSVSVANWLDLGGVYAVANLRGGGEYGQAWHLAGTQQNKQNVFDDFIAAAEYLKAEGYTRTDRLAIRGGSNGGLLVGAVMTQRPDLMRVALPAVGVLDMLRYHTFTAGTGWAYDYGTSADSEAMFDYLKGYSPLHNVRPGVSYPSTMVTTADHNDRVVPAHSFKFAATLQADNAGPHPQLIRIETNAGHGAGTPVAKLIEQSADIYAFTLYEMGYRELPRQP | soluble |
| MTESLNRDLPVLLATLNKLSSDADRILLENREDIRKIAYNLSIVMEKVKDDLPVLVENLKELSVNLNTVVKNNKVNINKTLVSLRKTTENLSRASYKLDKILADLESGKGTLGKLLKDEELYENVNQGVKALGKAGKVVEKTQLYIGLRGELYREGDSKGILSVRLVPDRDKYYLLEVVGDSRGRVYREEYLDGREVVKKEFKPEFTLQYARNFSLFGRTLTLRGGLKENTGGVGADYYIYRDKYLFADLWDFGRKDRPQDKDLKPNLQIGIHWYINRNLYVRFGGDDLLNSKLRGFFGGVGLEFVDEDLKYLLGGIGVPIR | not soluble |
| MNMTKNAFQFGIEPVRITDTDNIQVNEGLPTNADPQVYALQLAKTVKAMLNGVLKDAQDNIPFPVEVLPTRNSLPTPIIAHTLADRSVLVPVRGGKRPEVVTAPSGTEITVEPIEQAILVSHQTKLWDQKSTTGFTQGTLQQDALNICDNVIRTINSKMVDVLESSKLLKTVELPALTGSLTAKADAIMDALYENTESSFGSEVSDYGIIAHESHLKALSRLAAKQGFGGEDAIVDMLGTDVAYYNGEDRGVFMMAKRFTALSFGCFRHDGESITVVLSRDGDSQSHDLEILGKVFVVAEAATTIKMGTGSATAVLPVVKRLSFTKEAN | not soluble |
| EEYPDGFAPMKPDQAEEAVLAGIALSACLIETNRRERFADRLRAAAGALREDWVVKIGDNHVAARLLDGLVTIPFDMDIAIEGAIEGESKSVVTDWR | not soluble |
| MSIQRFTPEFKAEAVRQVIERGYSVAEIAAGFGVSTHSLYKWVKAVTPDKSEKQASELLEAKSEILRLRAQMRRLEEERDILKKPSGSSHTAWRPLEHHHHHH | not soluble |
| MRRDQKMTELNNQIRSLQEEHGKEKLLAAATKILGKKVPTDYVRVLDPLELQASLQQIDAAVQDVLEKGKAREEAYGEKASLIKQKVKLKTAVELKEAEAFMQIQGEGRNQFAYVNDQKVALTNDTLRDAYRLHYSKEERQQLTDVEQELASIDIKIYQTKDAWETAKESADLVKAKAYVQANLLKFLA | not soluble |
| MKGMKYHDYIWDLGGTLLDNYETSTAAFVETLALYGITQDHDSVYQALKVSTPFAIETFAPNLENFLEKYKENEARELEHPILFEGVSDLLEDISNQGGRHFLVSHRNDQVLEILEKTSIAAYFTEVVTSSSGFKRKPNPESMLYLREKYQISSGLVIGDRPIDIEAGQAAGLDTHLFTSIVNLRQVLDI | soluble |
| MHAVKPFPLCNLPLISLREVIDYLPTFDIFVLLHTSQKTKKLISSNIRDFVARQEHYKKQDISVRVVAERSYMEVIAISPKIRSTRFKRNDINQALEAAKYLVDHFKCDTDSVWLRITHRKEDETRQIITSVKEINLNITNLQFRHERISSDLFNWLLENCVQDVHIWVLEPQSITVSNWNVFEKVRKYNFQGINFSSHQANMLLKSLKSNNNFVQFRANDIENSLDLSVVFEDTGATAKMDTYRSVVFRPGLTVLKEYKPSKSRFVTENNNGGEMSICITEHAFSFQSN | not soluble |
| MAPDVFTVVAEPQRRRILERLRAGHASVGELVDQLALPQPTVSKHLRVLRQAGFVTCRTAAQQRIYSLHREPFDEFDAWLQPYRRLWANHLDALGRHLESKETPS | not soluble |
| KVKELNLHELCAVCLEDFKPRDELGICPCKHAFHRKCLIKWLEVRKVCPLCNMPVLQLAQL | soluble |
| MLRTYFPEVVLFLHAFPLNKEMYRYQFCAFEEEGIPYVALDYPGFGDAPNLPGEYTVERLTDYVVNELRKFRVKKVIPIGDSMGGYIMFDMWRRYREMIKGFVFVATRAEADTEEGKKARYALIEKVQKEGKEFLIEAMLENQTSPATKKDENKMRTLRCIMEKATREGIVKTLKALAERKDNTDLLPSIDVPTLVIAGKDDERVTPPEIVKKIAEGIKGAKYYELENSAHLPPFENPEKFNEVVIPFVKDLLKTP | soluble |
| GLETSSKKYSLGKTLGTGSFGIVCEVFDIESGKRFALKKVLQDPRYKNRELDIMKVLDHVNIIKLVDYFYTTGDEEPKPPQPPDDHNKLGGKNNGVNNHHKSVIVNPSQNKYLNVIMEYVPDTLHKVLKSFIRSGRSIPMNLISIYIYQLFRAVGFIHSLGICHRDIKPQNLLVNSKDNTLKLCDFGSAKKLIPSEPSVAYICSRFYRAPELMLGATEYTPSIDLWSIGCVFGELILGKPLFSGETSIDQLVRIIQIMGTPTKEQMIRMNPHYTEVRFPTLKAKDWRKILPEGTPSLAIDLLEQILRYEPDLRINPYEAMAHPFFDHLRNSYESEVKNNSNFPHGVNQNIPQLFNFSPYELSIIPGNVLNRILPKNFSPNYKH | soluble |
